Laboratory results as given in article PMC6868385.

Biological target: GFP-tagged BLM (Bloom helicase) (human) (UniProt P54132)
Test: single-molecule fluorescence intensity

Substance: GFP-tagged BLM (Bloom helicase), P54132 1-1417 (enzyme; other documents disagree on this pair)
- stoichiometry N (molecules of GFP–BLM per complex): 3.1
